Experimental data taken from patent US6361998B1, “Efficient culture of stem cells for the production of hemoglobin” (Hemosol Inc., priority 1999, dated 2002).

How the values were obtained:
[1] = system: BaF3 cells; experiment: Cytokine-dependency growth of BaF3 cells transfected with human EpoR constructs; assay type: cell-based, murine; conditions: for growth of BaF3 transfectants: no exogenous IL-3
Experimental: The functionality of the EpoR(t439; R154C) was tested and compared to the wild-type EpoR (wtEpoR) and EpoR(t439) using the BaF3 cell line. The cDNAs encoding these three different EpoRs were subcloned into the pcDNA3.1 expression vector, which provides high-level constitutive expression of proteins in mammalian cells and also contains the neomycin gene for the selection of stable transfectant with G418. The vector constructs were electroporated into BaF3 cells and stable transfectants were isolated in the presence of 600 ug/ml G418. BaF3 transfectants were maintained in RPMI-1640 with 10% FBS and 5% WEHI conditioned medium (a source of murine IL-3), except during the cytokine-dependency studies when cells were maintained in RPMI-1640 plus 10% FBS, along with the indicated cytokines. Growth of the different EpoR transfectants in the presence of either murine IL-3 or two different doses of Epo was compared to that of the parental (non-transfected) BaF3 cells (FIG. 7). […] All three EpoR constructs encode functional receptors that allow expansion of the BaF3 cells in the presence of Epo without exogenous IL-3.

[2] = system: erythroid-cultured CD34^+lin^- cells; experiment: Methylcellulose colony-forming assay two to three days after transfection of cultured erythroid cells; assay type: cell-based, human; conditions: for # of erythroid colonies in EpoR(t439; R154C) transfected samples: BFU-E and CFU-E; for increase in erythroid colonies: versus untransfected or mock transfected control
Experimental: CD34^+lin^− cells cultured for 7 to 10 days in EPSFM+LDL were washed in EB and subjected to electroporation in the presence of EpoR(t439; R154C)/pcDNA3.1 expression vector as described in Example 3. Two to three days post-transfection, aliquots of untransfected and EpoR(t439; R154C)/pcDNA3.1 transfected cells were counted for viability by trypan-blue dye exclusion and methylcellose colony-forming assays were performed in IMDM, 1% methylcellulose, 30% FBS, 1% BSA, 10^−4 M β mercaptoethanol, and […] glutamine, IL-3 (10 ng/ml), SCF (50 ng/ml) and EPO (2 U/ml).

[3] = system: erythroid-cultured CD34^+lin^- cells; experiment: Methylcellulose colony-forming assay after 14 days liquid culture in G418; assay type: cell-based, human; conditions: after 14 days liquid culture with 500 ug/ml G418
Experimental: Cells transfected with either EpoR(t439; R154C)/pcDNA3.1 or the pcDNA3.1 vector alone were placed in liquid culture (IMDM, 1% BSA, 10 ng/ml rhIL-3, 50 ng/ml SCF and 2 U/ml EPO) in the presence of 500 ug/ml G418 for 14 days. At this time, cells were counted for viability by trypan-blue dye exclusion and methylcellose colony-forming assays were performed in IMDM, 1% methylcellulose, 30% FBS, 1% BSA, 10^−4 M β mercaptoethanol, and […] glutamine, IL-3 (10 ng/ml), SCF (50 ng/ml), EPO (2 U/ml) and 500 ug/ml G418. […] No colonies were detected in the untransfected or “mock” transfected controls. Thus, expression of the EpoR(t439; R154C)/pcDNA3.1 plasmid not only conferred G418 resistance but increased the number of erythroid progenitors detectable after 14 days of liquid culture.

B1: EpoR(t439; R154C): human EpoR truncated at amino acid 439 with R154C point mutation; constitutively active (SEQ ID NOS 6 and 7) (protein, listed as Homo sapiens)
chain: MDHLGASLWPQVGSLCLLLAGAAWAPPPNLPDPKFESKAALLAARGPEELLCFTERLEDLVCFWEEAASAGVGPGNYSFSYQLEDEPWKLCRLHQAPTARGAVRFWCSLPTADTSSFVPLELRVTAASGAPRYHRVIHINEVVLLDAPVGLVACLADESGHVVLRWLPPPETPMTSHIRYEVDVSAGNGAGSVQRVEILEGRTECVLSNLRGRTRYTFAVRARMAEPSFGGFWSAWSEPVSLLTPSDLDPLILTLSLILVVILVLLTVLALLSHRRALKQKIWPGIPSPESEFEGLFTTHKGNFQLWLYQNDGCLWWSPCTPFTEDPPASLEVLSERCWGTMQAVEPGTDDEGPLLEPVGSEHAQDTYLVLDKWLLPRNPPSEDLPGPGGSVDIVAMDEGSEASSCSSALASKPSPEGASAASFEYTILDPSSQLLRP
growth of BaF3 transfectants ([1]; 0.02 U/ml Epo): grew in the presence of either 0.02 or 2 U/ml Epo but less than in the presence of IL-3
growth of BaF3 transfectants ([1]; 2 U/ml Epo): grew in the presence of either 0.02 or 2 U/ml Epo but less than in the presence of IL-3
expansion of BaF3 cells ([1]; absence of exogenous cytokines): supported expansion
functionality of the EpoR ([1]; conclusion from BaF3 growth): constitutively active form of the EpoR
# of erythroid colonies in EpoR(t439; R154C) transfected samples ([2]; Experiment # 1): 428
increase in erythroid colonies ([2]; Experiment # 1): +388
# of erythroid colonies in EpoR(t439; R154C) transfected samples ([2]; Experiment # 2): 522
increase in erythroid colonies ([2]; Experiment # 2): +98
# of erythroid colonies in EpoR(t439; R154C) transfected samples ([2]; Experiment # 3): 66
increase in erythroid colonies ([2]; Experiment # 3): +66
erythroid colonies compared to pcDNA3.1 vector alone [3]: More erythroid colonies
